For this assay, the target named is Cullin 4A (Cul4A), endogenous in 293T cells (human, UniProt Q13619 1-759, limits assumed). Nature of the assay: anti-FLAG immunoprecipitation from 293T cells, western blotting for DDB1 and Cul4A. (Immunoblotting shows a protein as a band on a membrane.)

The text below walks through data of patent US20120192297A1 (TOKYO INSTITUTE OF TECHNOLOGY, published 2012).

Sequence of Cullin 4A (Cul4A), endogenous in 293T cells (Q13619 whole entry): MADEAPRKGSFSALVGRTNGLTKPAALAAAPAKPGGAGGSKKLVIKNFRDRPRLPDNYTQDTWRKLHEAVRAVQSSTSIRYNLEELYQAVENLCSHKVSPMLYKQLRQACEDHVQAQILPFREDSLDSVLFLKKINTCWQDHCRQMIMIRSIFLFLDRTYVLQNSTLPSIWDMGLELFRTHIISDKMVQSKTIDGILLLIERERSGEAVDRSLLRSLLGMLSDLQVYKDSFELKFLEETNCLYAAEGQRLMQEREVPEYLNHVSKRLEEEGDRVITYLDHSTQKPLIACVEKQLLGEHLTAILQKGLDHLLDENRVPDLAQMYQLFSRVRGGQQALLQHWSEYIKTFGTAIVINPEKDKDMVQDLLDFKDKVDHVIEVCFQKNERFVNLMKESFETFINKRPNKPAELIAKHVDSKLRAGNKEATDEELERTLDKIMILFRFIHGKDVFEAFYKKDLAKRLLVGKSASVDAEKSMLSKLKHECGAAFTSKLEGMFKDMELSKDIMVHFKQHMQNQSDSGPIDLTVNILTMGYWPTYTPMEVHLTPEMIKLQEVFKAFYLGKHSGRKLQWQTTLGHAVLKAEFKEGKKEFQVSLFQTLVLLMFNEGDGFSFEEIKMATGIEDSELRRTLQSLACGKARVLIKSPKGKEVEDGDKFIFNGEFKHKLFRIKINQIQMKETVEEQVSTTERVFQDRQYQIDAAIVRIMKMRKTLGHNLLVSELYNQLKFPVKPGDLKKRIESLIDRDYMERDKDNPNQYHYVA

B1: FH-CRBN ΔMid (deletion of amino acids 187 to 260) (other, not shown: small tags and cut ends)
chain: MAGEGDQQDAAHNMGNHLPLLPAESEEEDEMEVEDQDSKEAKKPNIINFDTSLPTSHTYLGADMEEFHGRTLHDDDSCQVIPVLPQVMMILIPGQTLPLQLFHPQEVSMVRNLIQKDRTFAVLAYSNVQEREAQFGTTAEIYAYREEQDFGIEIVKVKAIGRQRFKVLELRTQSDGIQQAKVQILPLREWDENLKDDSLPSNPIDFSYRVAACLPIDDVLRIQLLKIGSAIQRLRCELDIMNKCTSLCCKQCQETEITTKNEIFSLSLCGPMAAYVNPHGYVHETLTVYKACNLNLIGRPSTEHSWFPGYAWTVAQCKICASHIGWKFTATKKDMSPQKFWGLTRSALLPTIPDTEDEISPDKVILCL
Take B1: the binding result is given as “no binding”.
